Test results reported in patent US20140056926A1 (SNU R AND DB FOUNDATION, published 2014).

Molecular target: T1, integrin alpha2b beta3 (UniProt P08514 32-993; P05106 27-718)
T1 construct: also called integrin α2b β3; integrin alpha2 beta3
Test: ELISA on coated integrin alpha2b beta3 (100 ng per well), anti-human Fab-HRP, absorbance 405 nm

B1: abciximab (ReoPro) (Fab, V domains shown)
VH: EVQLQQSGTVLARPGASVKMSCEASGYTFTNYWMHWVKQRPGQGLEWIGAIYPGNSDTSYIQKFKGKAKLTAVTSTTSVYMELSSLTNEDSAVYYCTLYDGYYVFAYWGQGTLVTVSA
VL: EIVLTQSPVTLSVTPGDSVSLSCRASRDISNNLHWFQQTSHESPRLLIKYASQSMSGIPSRFSGSGSGTDFTLSINSVETEDFGMYFCQQTNSWPYTFGGGTKLEIK
In the case of B1, the “EC50 (read off the curve)” value is reported as roughly 0.8 nM.
